The text below walks through data of US10232056B2, “Method for measuring toxicity of human CSF” (KYOWA HAKKO KIRIN CO., LTD., priority 2014, dated 2019).

A value given as a limit tells only on which side of the number the result lay.

Test [1] relates to ICR mice. Nature of the test: Blind measurement of changes in cognitive function of mice after 6E4HV0LV0 pretreatment of CSF (Y-maze test, Example 6). It is filed as in vivo, mouse. Conditions: for Percentage improvement by 6E4HV0LV0 treatment (%): 10 μl intraventricular; for improvement of spontaneous alternation by 6E4HV0LV0 pretreatment: 10 ng/ml. How it is done: The cognitive function of mice administered with multiple normal CSFs or AD patient CSFs was measured in blind experiment by performing a Y-maze test in the same manner as in Example 1. The effect of 6E4HV0LV0 pretreatment was also examined at the same time. The experiment was conducted by separating testers who is responsible for dispensing normal CSFs or AD patient CSFs and preparing a 6E4HV0LV0-pretreated AD patient CSF for blind experiment, and who is responsible for administering the samples to mice, and conducting the Y-maze test.
Tester (A) randomly assigned numbers to the dispensed normal CSFs (Precision Med) and AD patient CSFs (Precision Med) for blind experiment. For the AD patient CSFs, samples were also prepared by adding 6E4HV0LV0 to each dispensed CSF to make the final concentration 10 ng/ml, and incubating the mixture at room temperature for about 1 hour. The dispensed and prepared CSF samples were all preserved at −80° C. until the day of the Y-maze testing.
On the day of the Y-maze testing, tester (B) received the samples prepared by tester (A) for blind experiment, and thawed the samples at room temperature. Each sample (10 μl) or physiological saline (10 μl; hereinafter, “Sham”) was administered into the cerebral ventricles of ICR mice under isoflurane anesthesia, and the mice were tested by Y-maze test in the same manner as in Example 1 to determine spontaneous alternation (%). The sample and the physiological saline were administrated in 5 μl dose into each of the left and right cerebral ventricles of mice.
A Y-maze test that used the AD patient CSFs pretreated with 6E4HV0LV0 was conducted at the same time. Percentage improvement of mouse spontaneous alternation by 6E4HV0LV0 pretreatment was calculated for each mouse by using the Formula (3) below. The results are shown under the column heading “Percentage improvement by 6E4HV0LV0 treatment (%)” in Table 1. Percentage improvement (%) of mouse spontaneous alternation by 6E4HV0LV0 pretreatment={(spontaneous alternation of mouse administered with AD patient CSF pretreated with 6E4HV0LV0)−(spontaneous alternation of mouse administered with the same AD patient CSF without 6E4HV0LV0 pretreatment)}/{(spontaneous alternation of Sham administered group)−(spontaneous alternation of mouse administered with the same AD patient CSF without 6E4HV0LV0 pretreatment)}×100 Formula (3)

The test system of test [2] is ICR mice. The experiment in a line: Effect of anti-Aβ antibody pretreatment of AD patient CSF on mouse cognitive function impairment (Y-maze test, Example 5). The test is classed as in vivo. To be noted: 10 μl intraventricular, FIG. 5. The protocol: For the purpose of evaluating a sample that more accurately reflects the actual clinical sample, the cognitive function of mice administered with an AD patient CSF pretreated with 6E4HV0LV0 was measured by Y-maze test.
6E4HV0LV0 was added to AD patient CSF (Precision Mod) to make the final concentration 1 ng/ml, 10 ng/ml, or 100 ng/ml, and the mixture was incubated at room temperature for about 1 hour.
Artificial cerebrospinal fluid [artificial spinal fluid (Otsuka Pharmaceutical Co., Ltd.) supplemented with 0.02 w/v % human serum albumin (Sigma-Aldrich)](hereinafter, “vehicle”) was added to AD patient CSF or physiological saline (hereinafter, “Sham”), and the mixture was incubated at room temperature. The prepared sample was preserved at −80° C., and used for the experiment after being thawed at room temperature on the day of the Y-maze testing.
The sample (10 μl each) was administered into the cerebral ventricles of ICR mice under isoflurane anesthesia, and each mouse was tested by Y-maze test in the same manner as in Example 1 to determine spontaneous alternation (%). Each sample was administrated in 5 μl dose into each the left and right cerebral ventricles of mice.
In the following, the sample with the AD patient CSF plus the vehicle will be identified by the notation “vehicle-AD CSF”. Similar notations are used for other samples.

Test [3] concerns ICR mice. Nature of the test: Effect of anti-Aβ antibody intravenous administration on mouse cognitive function impairment by AD patient CSF (Y-maze test, Example 4). The test is classed as in vivo. To be noted: next day 10 μl AD patient CSF intraventricular, FIG. 4. How it is done:
Next, mice that had intravenous administration of anti-Aβ oligomer antibody were measured for changes in cognitive function after AD patient CSF administration, using a Y-maze test. As the anti-Aβ oligomer antibody, an anti-Aβ oligomer humanized antibody 6E4HV0LV0 was produced according to the method disclosed in WO2011/016567 and known methods, and used in the experiment.
ICR mice were intravenously administered with 3 mg/kg of human IgG4 (Sigma-Aldrich), or 0.3 mg/kg, 1 mg/kg, or 3 mg/kg of 6E4HV0LV0.
On the next day, 10 μl of physiological saline (hereinafter, “Sham”) or the same amount of AD patient CSF (Precision Med) was administered into the cerebral ventricles of the mice under isoflurane anesthesia. Each mouse was then tested by Y-maze test in the same manner as in Example 1 to determine spontaneous alternation (%). The AD patient CSF and the physiological saline were administrated in 5 μl dose into each of the left and right cerebral ventricles.
In the following, mice that had intravenous administration of human IgG4, and intraventricular administration of Sham will be identified by using the notation “human IgG4 i.v.-Sham administered group.” Similar notations are used for mice administered with other samples.

B1: 6E4HV0LV0: anti-Aβ oligomer humanized antibody, VH SEQ ID NO: 1, VL SEQ ID NO: 2, produced according to WO2011/016567 (antibody, V domains shown)
VH: QVQLVQSGAEVKKPGASVKVSCKASGYTFTSYWMHWVRQAPGQGLEWMGEINPRNGGTNNNENFKRRVTITADTSTSTAYMELSSLRSEDTAVYYCARDGNYDPFAYWGQGTLVTVSS
VL: DIVMTQSPLSLPVTPGEPASISCRSSQSLVHSNGNTYLHWYLQKPGQSPQLLIYKVSNRFSGVPDRFSGSGSGTDFTLKISRVEAEDVGVYYCSQSTHVPPYTFGQGTKLEIK
Turning to B1, the “Percentage improvement by 6E4HV0LV0 treatment (%)” value (“Percentage improvement … (%)” below) is recorded as 80.2% in test [1] (AD patient CSF 8006_Visit 3 pretreated with 10 ng/ml); 59.7% in test [1] (AD patient CSF 8014_Visit 4 pretreated with 10 ng/ml); 14.5% in test [1] (AD patient CSF 8026_Visit 2 pretreated with 10 ng/ml); −11.8% in test [1] (AD patient CSF 8029_Visit 2 pretreated with 10 ng/ml); 86.8% in test [1] (AD patient CSF 8056_Visit 9 pretreated with 10 ng/ml); 59.3% in test [1] (AD patient CSF 8057_Visit 8 pretreated with 10 ng/ml). Further, the “Percentage improvement … (%)” value in test [1] (AD patient CSF 8060_Visit 6 pretreated with 10 ng/ml) was 46.0%; in test [1] (AD patient CSF 8061_Visit 5 pretreated with 10 ng/ml), 65.6%; in test [1] (AD patient CSF 8076_Visit 8 pretreated with 10 ng/ml), 68.3%; in test [1] (AD patient CSF 8091_Visit 5 pretreated with 10 ng/ml) it was 56.3%; in test [1] (AD patient CSF 8092_Visit 3 pretreated with 10 ng/ml) it was 87.7%; in test [1] (AD patient CSF 8108_Visit 6 pretreated with 10 ng/ml) it was 82.0%. Further, the “Percentage improvement … (%)” value in test [1] (AD patient CSF 8109_Visit 5 pretreated with 10 ng/ml) was 90.7%; in test [1] (AD patient CSF 8189_Visit 3 pretreated with 10 ng/ml), 83.1%; in test [1] (AD patient CSF 8211_Visit 2 pretreated with 10 ng/ml), 90.0%. For the same molecule, the figures for the “improvement of spontaneous alternation by 6E4HV0LV0 pretreatment” value in test [1] (in 6 out of the 15 AD patient CSF samples) and in test [1] (in 7 out of the 15 AD patient CSF samples) were at least 40% and at least 80%, respectively. In test [1] (the one normal CSF (1 out of 11) that impaired cognitive function), the “effect of 6E4HV0LV0 pretreatment on cognitive function impairment by normal CSF” value was “did not improve”. In addition, the “spontaneous alternation compared to the vehicle-AD CSF administered group” value in test [2] (AD patient CSF pretreated at final concentration of 10 ng/ml or 100 ng/ml) is listed as “higher”. Also, the “spontaneous alternation compared to the vehicle-Sham administered group” value in test [2] (AD patient CSF pretreated at final concentration of 100 ng/ml) is given as “recovering to the same levels”. Moreover, the “spontaneous alternation compared to the human IgG4 i.v.-AD CSF administered group” value in test [3] (3 mg/kg i.v.) is listed as “significantly higher”. The “spontaneous alternation compared to the human IgG4 i.v.-Sham administered group” value in test [3] (3 mg/kg i.v.) is on record as “recovering to the same levels”. Also, the “spontaneous alternation, dose response” value in test [3] (6E4HV0LV0 0.3, 1 or 3 mg/kg i.v.) is “increased with increase in the dose”.
